Assays:
c-Src SH2 = assay: SH2 binding enrichment of the phosphorylated peptide, bacterial display (enrichment ratio); higher = better substrate or ligand; peptides without Tyr show the background
SHP2-C SH2 = assay: as above
Grb2 SH2 = Grb2 SH2 (UniProt P62993); assay: as above
EPHB1 = EPHB1 (UniProt P54762); assay: phosphorylation enrichment, bacterial display (enrichment ratio); higher = better substrate or ligand; peptides without Tyr show the background
Fyn = Fyn (UniProt P06241); assay: as above
AncSZ = assay: as above
MERTK = MERTK (UniProt Q12866); assay: as above
Hck = Hck (UniProt P08631); assay: as above
EPHB2 = EPHB2 (UniProt P29323); assay: as above
Jak2 = Jak2 (UniProt O60674); assay: as above
Fes = Fes (UniProt P07332); assay: as above
FGFR3 = FGFR3 (UniProt P22607); assay: as above
c-Abl (mouse) = assay: as above
Fer (mouse) = assay: as above
c-Src = assay: as above
FGFR1 = FGFR1 (UniProt P11362); assay: as above
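Throughout, for SH2 binding enrichment of the phosphorylated peptide, bacterial display: peptide library displayed on the E. coli surface as eCPX fusions, selected cells deep-sequenced, score is each peptide's frequency after selection divided by its frequency in the input.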
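Throughout, for phosphorylation enrichment, bacterial display: 11-residue human phosphosite peptides and single-mutation variants displayed on the E. coli surface, counted by deep sequencing, each peptide's frequency after selection divided by its frequency in the unselected input library; frequency after pTyr selection over input frequency; kinase dosed for 20-30% of maximal phosphorylation in three min.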

Sequence of Fyn (P06241 whole entry, looked up): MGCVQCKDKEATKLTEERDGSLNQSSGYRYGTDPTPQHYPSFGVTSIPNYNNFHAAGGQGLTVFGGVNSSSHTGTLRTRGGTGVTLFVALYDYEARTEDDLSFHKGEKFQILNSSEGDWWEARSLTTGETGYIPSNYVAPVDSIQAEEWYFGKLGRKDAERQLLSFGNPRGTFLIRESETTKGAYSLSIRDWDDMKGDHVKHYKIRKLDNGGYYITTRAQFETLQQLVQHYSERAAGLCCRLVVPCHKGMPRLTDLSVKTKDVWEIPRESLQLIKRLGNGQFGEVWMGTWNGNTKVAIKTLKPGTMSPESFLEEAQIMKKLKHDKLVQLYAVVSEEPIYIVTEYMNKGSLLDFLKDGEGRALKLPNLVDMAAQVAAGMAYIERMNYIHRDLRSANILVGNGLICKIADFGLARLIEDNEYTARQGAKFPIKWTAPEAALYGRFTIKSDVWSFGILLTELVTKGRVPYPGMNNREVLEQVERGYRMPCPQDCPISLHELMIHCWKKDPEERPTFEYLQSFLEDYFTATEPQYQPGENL
Sequence of MERTK (Q12866 whole entry, looked up): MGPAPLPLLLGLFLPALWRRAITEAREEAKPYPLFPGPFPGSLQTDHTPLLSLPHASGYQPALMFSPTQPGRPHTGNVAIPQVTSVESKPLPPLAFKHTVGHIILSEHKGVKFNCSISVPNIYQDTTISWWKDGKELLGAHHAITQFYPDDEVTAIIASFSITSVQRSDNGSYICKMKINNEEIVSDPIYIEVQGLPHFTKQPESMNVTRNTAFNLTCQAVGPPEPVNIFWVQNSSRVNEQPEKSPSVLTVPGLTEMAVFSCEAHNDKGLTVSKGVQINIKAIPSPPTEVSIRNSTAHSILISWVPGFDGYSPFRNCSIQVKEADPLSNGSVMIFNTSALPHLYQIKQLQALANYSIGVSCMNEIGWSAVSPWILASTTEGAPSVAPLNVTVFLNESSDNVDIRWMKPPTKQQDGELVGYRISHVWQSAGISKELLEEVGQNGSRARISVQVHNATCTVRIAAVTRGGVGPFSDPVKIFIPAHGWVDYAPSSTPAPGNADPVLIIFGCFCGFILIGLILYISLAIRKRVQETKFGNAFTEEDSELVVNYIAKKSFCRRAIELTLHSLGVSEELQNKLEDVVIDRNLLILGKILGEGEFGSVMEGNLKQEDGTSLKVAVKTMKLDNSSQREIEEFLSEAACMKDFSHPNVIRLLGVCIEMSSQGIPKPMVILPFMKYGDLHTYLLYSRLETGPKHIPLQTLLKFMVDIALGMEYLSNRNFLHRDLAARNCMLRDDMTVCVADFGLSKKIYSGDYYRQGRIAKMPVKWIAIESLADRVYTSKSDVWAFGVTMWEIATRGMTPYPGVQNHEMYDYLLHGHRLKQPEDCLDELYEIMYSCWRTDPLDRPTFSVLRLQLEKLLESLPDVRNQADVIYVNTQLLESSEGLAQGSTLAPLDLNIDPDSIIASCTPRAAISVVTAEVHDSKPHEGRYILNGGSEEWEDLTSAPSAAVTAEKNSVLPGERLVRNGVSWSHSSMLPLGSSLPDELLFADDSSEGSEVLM
Sequence of FGFR3 (P22607 whole entry, looked up): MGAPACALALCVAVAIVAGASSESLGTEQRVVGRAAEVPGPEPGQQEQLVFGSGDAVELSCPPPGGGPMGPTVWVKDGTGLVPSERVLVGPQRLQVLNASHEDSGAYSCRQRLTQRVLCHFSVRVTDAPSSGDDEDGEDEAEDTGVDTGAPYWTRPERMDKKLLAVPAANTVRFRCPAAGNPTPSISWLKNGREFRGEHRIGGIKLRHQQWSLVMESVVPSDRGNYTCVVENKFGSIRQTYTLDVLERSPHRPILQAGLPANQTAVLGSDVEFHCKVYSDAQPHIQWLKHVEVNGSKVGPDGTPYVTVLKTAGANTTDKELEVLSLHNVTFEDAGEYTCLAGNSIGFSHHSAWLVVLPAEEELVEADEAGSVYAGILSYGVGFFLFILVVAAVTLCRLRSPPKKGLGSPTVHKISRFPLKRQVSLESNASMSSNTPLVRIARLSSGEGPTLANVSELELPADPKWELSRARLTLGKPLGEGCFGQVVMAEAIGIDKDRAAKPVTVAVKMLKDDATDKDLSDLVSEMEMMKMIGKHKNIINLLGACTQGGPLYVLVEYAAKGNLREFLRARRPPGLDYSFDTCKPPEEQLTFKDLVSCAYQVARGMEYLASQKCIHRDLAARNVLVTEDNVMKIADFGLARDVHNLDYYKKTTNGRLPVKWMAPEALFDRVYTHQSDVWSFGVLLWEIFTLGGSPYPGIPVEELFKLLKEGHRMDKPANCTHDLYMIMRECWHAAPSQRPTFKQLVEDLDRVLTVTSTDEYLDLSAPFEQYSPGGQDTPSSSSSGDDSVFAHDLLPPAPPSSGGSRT
Sequence of EPHB1 (P54762 whole entry, looked up): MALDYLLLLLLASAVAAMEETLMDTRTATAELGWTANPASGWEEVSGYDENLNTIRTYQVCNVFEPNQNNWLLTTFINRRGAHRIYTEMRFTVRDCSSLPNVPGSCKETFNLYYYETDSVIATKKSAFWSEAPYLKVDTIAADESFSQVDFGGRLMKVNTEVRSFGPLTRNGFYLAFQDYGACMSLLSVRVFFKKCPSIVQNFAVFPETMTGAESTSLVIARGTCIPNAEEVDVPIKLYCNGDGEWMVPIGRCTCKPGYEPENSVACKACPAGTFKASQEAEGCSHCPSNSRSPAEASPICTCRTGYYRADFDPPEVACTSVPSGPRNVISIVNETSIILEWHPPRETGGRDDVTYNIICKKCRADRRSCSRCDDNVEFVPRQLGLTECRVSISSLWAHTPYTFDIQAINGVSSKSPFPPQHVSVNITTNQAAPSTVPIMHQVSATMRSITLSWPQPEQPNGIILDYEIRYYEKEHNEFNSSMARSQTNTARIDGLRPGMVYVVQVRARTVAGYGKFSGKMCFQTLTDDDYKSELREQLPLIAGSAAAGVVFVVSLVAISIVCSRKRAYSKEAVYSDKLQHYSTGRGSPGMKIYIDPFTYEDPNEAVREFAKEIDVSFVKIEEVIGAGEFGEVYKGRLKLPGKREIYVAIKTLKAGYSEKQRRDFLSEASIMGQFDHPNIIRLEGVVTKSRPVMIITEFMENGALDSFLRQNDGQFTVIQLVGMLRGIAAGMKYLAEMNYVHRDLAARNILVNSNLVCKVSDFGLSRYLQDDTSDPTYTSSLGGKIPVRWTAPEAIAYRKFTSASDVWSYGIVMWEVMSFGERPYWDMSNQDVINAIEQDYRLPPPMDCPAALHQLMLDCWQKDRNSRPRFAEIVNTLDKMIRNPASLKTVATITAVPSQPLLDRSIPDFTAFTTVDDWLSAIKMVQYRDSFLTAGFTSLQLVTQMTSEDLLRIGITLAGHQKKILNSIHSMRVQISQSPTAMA
Sequence of Jak2 (O60674 whole entry, looked up): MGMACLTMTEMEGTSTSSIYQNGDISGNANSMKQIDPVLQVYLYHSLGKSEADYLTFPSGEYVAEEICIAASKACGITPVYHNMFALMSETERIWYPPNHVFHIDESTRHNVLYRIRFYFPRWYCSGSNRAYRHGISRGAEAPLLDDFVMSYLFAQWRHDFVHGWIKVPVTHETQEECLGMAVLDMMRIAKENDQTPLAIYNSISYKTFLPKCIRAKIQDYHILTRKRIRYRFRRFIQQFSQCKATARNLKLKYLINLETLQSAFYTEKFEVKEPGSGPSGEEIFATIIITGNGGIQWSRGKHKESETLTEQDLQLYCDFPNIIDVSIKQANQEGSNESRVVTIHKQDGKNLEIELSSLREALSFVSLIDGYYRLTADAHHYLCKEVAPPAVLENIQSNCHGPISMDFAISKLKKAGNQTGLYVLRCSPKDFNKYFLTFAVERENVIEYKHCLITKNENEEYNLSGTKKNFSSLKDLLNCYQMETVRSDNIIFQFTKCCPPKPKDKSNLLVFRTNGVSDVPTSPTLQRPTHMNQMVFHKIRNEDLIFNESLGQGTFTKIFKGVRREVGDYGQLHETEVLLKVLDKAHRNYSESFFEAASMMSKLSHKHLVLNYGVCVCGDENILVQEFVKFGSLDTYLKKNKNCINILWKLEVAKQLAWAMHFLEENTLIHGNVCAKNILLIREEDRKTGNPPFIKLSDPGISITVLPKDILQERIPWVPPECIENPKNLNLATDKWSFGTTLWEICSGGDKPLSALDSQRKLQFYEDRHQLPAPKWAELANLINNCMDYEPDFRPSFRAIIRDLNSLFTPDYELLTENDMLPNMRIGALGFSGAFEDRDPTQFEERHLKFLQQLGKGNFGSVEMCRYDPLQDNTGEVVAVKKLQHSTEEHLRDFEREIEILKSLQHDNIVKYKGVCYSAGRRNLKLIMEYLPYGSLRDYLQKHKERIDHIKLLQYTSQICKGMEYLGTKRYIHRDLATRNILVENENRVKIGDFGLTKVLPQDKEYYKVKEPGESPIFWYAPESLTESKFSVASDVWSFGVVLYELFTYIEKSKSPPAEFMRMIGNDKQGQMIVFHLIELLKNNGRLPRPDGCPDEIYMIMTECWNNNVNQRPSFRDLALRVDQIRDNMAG
Sequence of Grb2 SH2 (P62993 whole entry, looked up): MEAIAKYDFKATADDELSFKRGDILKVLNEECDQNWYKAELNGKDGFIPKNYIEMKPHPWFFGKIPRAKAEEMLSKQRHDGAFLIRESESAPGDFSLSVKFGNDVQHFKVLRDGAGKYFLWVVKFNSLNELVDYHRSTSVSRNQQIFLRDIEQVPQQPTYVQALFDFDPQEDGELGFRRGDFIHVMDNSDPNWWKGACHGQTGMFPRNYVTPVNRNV

Sequence | SH2 binding enrichment (c-Src SH2) | SH2 binding enrichment (SHP2-C SH2) | SH2 binding enrichment (Grb2 SH2) | phosphorylation enrichment (EPHB1) | phosphorylation enrichment (Fyn) | phosphorylation enrichment (AncSZ) | phosphorylation enrichment (MERTK) | phosphorylation enrichment (Hck) | phosphorylation enrichment (EPHB2) | phosphorylation enrichment (Jak2) | phosphorylation enrichment (Fes) | phosphorylation enrichment (FGFR3) | phosphorylation enrichment (c-Abl (mouse)) | phosphorylation enrichment (Fer (mouse)) | phosphorylation enrichment (c-Src) | phosphorylation enrichment (FGFR1)
AKIDGYITSFR | 0.625 | 0.936 | 1.02 | 0.427 | 0.439 | 0.795 | 0.468 | 0.381 | 0.411 | 0.535 | 0.957 | 0.573 | 0.573 | 0.468 | 0.407 | 0.513
AKRKGYDMQVD [NEB_Y2770_R2773Q] | 0.533 | 0.493 | 0.728 | 0.257 | 0.327 | 0.473 | 0.301 | 0.363 | 0.366 | 0.377 | 0.395 | 0.315 | 0.372 | 0.328 | 0.404 | 0.311
ALAHKHHGGGG [HBB_Y146_Y146H] | 0.586 | 0.673 | 0.771 | 0.372 | 0.414 | 0.588 | 0.416 | 0.419 | 0.391 | 0.558 | 0.593 | 0.539 | 0.569 | 0.419 | 0.505 | 0.355
ALCHFYKLNII [ETV6_Y402_R399C_YF] | 0.915 | 1.06 | 1.12 | 0.607 | 0.537 | 1.19 | 0.499 | 0.544 | 0.732 | 1.26 | 1.42 | 0.806 | 0.833 | 0.692 | 0.581 | 0.479
ALECLYRREKR [TEKT5_Y195_H196R] | 0.268 | 0.551 | 0.769 | 0.466 | 0.539 | 0.775 | 0.621 | 0.515 | 0.534 | 0.788 | 1.85 | 0.482 | 0.522 | 0.435 | 0.66 | 0.584
ALEQKYWALGQ [MAP1A_Y1555] | 1.49 | 0.662 | 0.867 | 0.53 | 1.39 | 0.768 | 1.3 | 0.875 | 0.492 | 0.886 | 0.735 | 0.665 | 0.537 | 0.436 | 1.82 | 0.674
ALHHPYGCDVE [ABL2_Y80_R78H] | 0.773 | 0.771 | 1.03 | 0.606 | 0.44 | 0.803 | 0.44 | 0.541 | 0.621 | 0.708 | 0.998 | 0.726 | 0.681 | 0.447 | 0.669 | 0.441
ALPVFYAATIA [SLC20A2_Y187] | 0.669 | 0.889 | 0.793 | 0.905 | 0.544 | 0.823 | 2.96 | 0.956 | 0.756 | 0.886 | 1.03 | 0.651 | 0.831 | 1.2 | 0.598 | 0.394
ALSDGYWVVSN [TPP1_Y459] | 9.23 | 0.879 | 0.823 | 0.475 | 0.44 | 1.19 | 0.372 | 0.635 | 0.518 | 1.79 | 1.01 | 1.1 | 0.71 | 0.398 | 0.516 | 1.32
ALTDNYMFVVI [HAGH_Y61_L64V_YF] | 0.388 | 0.568 | 0.679 | 11.5 | 0.653 | 1.68 | 1.52 | 0.574 | 8.6 | 1.3 | 1.61 | 6.54 | 0.99 | 5.63 | 0.516 | 8.71
AMGAVYQAAAL [HYOU1_Y421] | 1.08 | 0.503 | 0.79 | 0.534 | 1.91 | 0.686 | 0.431 | 3.19 | 0.512 | 0.566 | 0.615 | 0.612 | 0.98 | 1.63 | 2.81 | 0.58
ANNEFYFRVCA | 0.37 | 0.567 | 0.716 | 0.563 | 0.483 | 1.28 | 0.44 | 0.516 | 0.548 | 1.39 | 1.43 | 0.824 | 0.923 | 0.536 | 0.412 | 0.445
ANNEYYFQVCA | 0.367 | 0.491 | 0.61 | 0.957 | 0.607 | 2.03 | 0.73 | 0.706 | 0.768 | 1.68 | 1.5 | 7.38 | 1.01 | 0.614 | 0.892 | 8.62
APEVIYATPGA [ABLtide_2014] | 0.439 | 0.672 | 0.691 | 3.19 | 8.17 | 2.58 | 8.2 | 9.6 | 8.54 | 0.839 | 1.14 | 0.868 | 34.4 | 11.6 | 5.95 | 0.879
QNTGGYFDLFG [PTPN11_Y62_D61G_YF] |  |  |  |  |  |  |  |  |  | 1.26 |  |  | 0.27 |  |  | 

Source: the supplement of paper PMC10065799, “High-throughput profiling of sequence recognition by tyrosine kinases and SH2 domains using bacterial peptide display” (eLife, 2023)
